Biological target: T1, NM23-wt containing the Strep-tag II (UniProt P15531 1-152, limits assumed)
T1 construct: Strep-tag II version used in the nanoparticle assay; also called wild type hexamers; not shown: Strep-tag II
Experiment: gold nanoparticle color change assay
Source text: A nanoparticle assay was used to characterize the binding of NM23 dimers versus hexamers. A MUC1*ecd peptide ([…]) (SEQ ID NO:44) was immobilized on NTA-SAM-coated gold colloids. NM23-wt, NM23S120G-dimer and NM23S120G-hexamer were expressed and purified with the Strep-tag II (FIG. 22c). The addition of NM23S120G-dimer induced a pink to blue solution color change, indicating a specific binding, which was then inhibited by the addition of an anti-MUC1* Fab.

T1 sequence (P15531 whole entry): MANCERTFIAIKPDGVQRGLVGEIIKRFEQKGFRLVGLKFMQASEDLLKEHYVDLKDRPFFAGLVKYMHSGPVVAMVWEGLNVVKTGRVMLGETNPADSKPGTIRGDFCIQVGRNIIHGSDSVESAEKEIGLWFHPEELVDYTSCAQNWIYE

binding result: no binding (tested: 64 nM)
B1: MUC1*ecd peptide (QFNQYKTEAASRYNLTISDVSVSDVPFPFSAQSGAHHHHHH) immobilized on NTA-SAM-coated gold colloids (peptide)
peptide: QFNQYKTEAASRYNLTISDVSVSDVPFPFSAQSGAHHHHHH
notes: also called MUC1*ecd peptide (PSMGFR-His tagged)

— patent publication US20140178963A1 (MINERVA BIOTECHNOLOGIES, published 2014)
